Common to all, as to experiment: pull-down
The target of one test is T1, DSK2A-HIS (Arabidopsis thaliana, UniProt Q9SII9 1-538).
T1 sequence (looked up): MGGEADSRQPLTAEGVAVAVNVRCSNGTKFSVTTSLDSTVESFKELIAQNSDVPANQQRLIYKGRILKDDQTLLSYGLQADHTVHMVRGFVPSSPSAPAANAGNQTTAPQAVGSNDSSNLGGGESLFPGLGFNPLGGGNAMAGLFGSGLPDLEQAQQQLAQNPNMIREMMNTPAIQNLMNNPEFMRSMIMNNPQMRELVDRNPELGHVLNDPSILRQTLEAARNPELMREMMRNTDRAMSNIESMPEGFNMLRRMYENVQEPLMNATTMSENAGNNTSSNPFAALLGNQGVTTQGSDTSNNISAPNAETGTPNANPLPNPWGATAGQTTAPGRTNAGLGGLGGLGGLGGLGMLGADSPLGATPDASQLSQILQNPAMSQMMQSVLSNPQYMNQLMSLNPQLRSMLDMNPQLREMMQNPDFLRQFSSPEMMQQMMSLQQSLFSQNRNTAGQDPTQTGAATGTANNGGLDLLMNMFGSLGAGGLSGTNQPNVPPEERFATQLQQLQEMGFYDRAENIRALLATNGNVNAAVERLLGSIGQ

Test [1] has as its target T2, DSK2A-MBP (Arabidopsis thaliana, UniProt Q9SII9 1-538).
T2 sequence (looked up): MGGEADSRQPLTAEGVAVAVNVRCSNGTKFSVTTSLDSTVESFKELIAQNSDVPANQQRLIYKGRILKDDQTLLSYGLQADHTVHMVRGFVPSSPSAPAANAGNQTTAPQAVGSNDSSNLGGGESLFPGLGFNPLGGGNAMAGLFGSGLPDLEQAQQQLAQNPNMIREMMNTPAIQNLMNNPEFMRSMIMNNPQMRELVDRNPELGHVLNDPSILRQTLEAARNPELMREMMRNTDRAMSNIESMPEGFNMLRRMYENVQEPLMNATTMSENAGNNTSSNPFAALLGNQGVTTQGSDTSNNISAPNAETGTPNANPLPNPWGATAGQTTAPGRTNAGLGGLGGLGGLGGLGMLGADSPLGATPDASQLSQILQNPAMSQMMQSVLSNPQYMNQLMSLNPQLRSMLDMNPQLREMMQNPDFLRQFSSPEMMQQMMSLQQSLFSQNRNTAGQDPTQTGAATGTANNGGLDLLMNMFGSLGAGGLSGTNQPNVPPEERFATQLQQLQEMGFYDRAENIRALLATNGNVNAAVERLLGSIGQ

For test [2], the target named is T2, DSK2A-MBP. This is another data set of the same source.
The next test concerns the target T3, GST-DSK2A (Arabidopsis thaliana, UniProt Q9SII9 1-538).
T3 sequence (looked up): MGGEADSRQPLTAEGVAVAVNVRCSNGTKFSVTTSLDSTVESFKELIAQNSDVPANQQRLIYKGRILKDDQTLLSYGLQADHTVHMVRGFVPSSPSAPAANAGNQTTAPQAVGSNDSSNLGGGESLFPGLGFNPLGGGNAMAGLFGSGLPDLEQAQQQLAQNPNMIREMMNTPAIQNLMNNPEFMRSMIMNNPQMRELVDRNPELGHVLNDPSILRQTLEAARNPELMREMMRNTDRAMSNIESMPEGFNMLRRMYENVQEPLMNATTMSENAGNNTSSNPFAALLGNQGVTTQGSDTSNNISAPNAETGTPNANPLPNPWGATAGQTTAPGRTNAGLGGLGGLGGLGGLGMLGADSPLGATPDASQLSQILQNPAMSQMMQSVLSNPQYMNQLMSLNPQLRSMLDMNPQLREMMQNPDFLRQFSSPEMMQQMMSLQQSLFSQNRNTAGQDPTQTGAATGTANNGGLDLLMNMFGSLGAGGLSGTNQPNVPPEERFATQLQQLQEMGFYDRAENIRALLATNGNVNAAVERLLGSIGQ

Read-outs that look alike come from different tables or passages of the source.

B1: phosphorylated BES1-MBP (natural protein, Arabidopsis thaliana, UniProt Q9LN63 1-335, looked up)
chain: MTSDGATSTSAAAAAAAMATRRKPSWRERENNRRRERRRRAVAAKIYTGLRAQGNYNLPKHCDNNEVLKALCSEAGWVVEEDGTTYRKGHKPLPGDMAGSSSRATPYSSHNQSPLSSTFDSPILSYQVSPSSSSFPSPSRVGDPHNISTIFPFLRNGGIPSSLPPLRISNSAPVTPPVSSPTSRNPKPLPTWESFTKQSMSMAAKQSMTSLNYPFYAVSAPASPTHHRQFHAPATIPECDESDSSTVDSGHWISFQKFAQQQPFSASMVPTSPTFNLVKPAPQQLSPNTAAIQEIGQSSEFKFENSQVKPWEGERIHDVAMEDLELTLGNGKAHS
modifications: phosphorylated in vitro by BIN2-GST (sites not given)
With B1, the binding result in the test with DSK2A-HIS is recorded as “binds”.

B2: BIN2, recombinant, of the in vitro pull-down with DSK2 (enzyme, Arabidopsis thaliana, UniProt Q39011 1-380, looked up)
chain: MADDKEMPAAVVDGHDQVTGHIISTTIGGKNGEPKQTISYMAERVVGTGSFGIVFQAKCLETGETVAIKKVLQDRRYKNRELQLMRVMDHPNVVCLKHCFFSTTSKDELFLNLVMEYVPESLYRVLKHYSSANQRMPLVYVKLYMYQIFRGLAYIHNVAGVCHRDLKPQNLLVDPLTHQVKICDFGSAKQLVKGEANISYICSRFYRAPELIFGATEYTTSIDIWSAGCVLAELLLGQPLFPGENAVDQLVEIIKVLGTPTREEIRCMNPHYTDFRFPQIKAHPWHKIFHKRMPPEAIDFASRLLQYSPSLRCTALEACAHPFFDELREPNARLPNGRPFPPLFNFKQEVAGSSPELVNKLIPDHIKRQLGLSFLNQSGT
With B2, the binding result with DSK2A-MBP [1] is reported as “binds”.

B3: GST-ATG8e (natural protein, Arabidopsis thaliana, UniProt Q8S926 1-118, looked up)
chain: MNKGSIFKMDNDFEKRKAEAGRIREKYPDRIPVIVEKAEKSEVPNIDKKKYLVPSDLTVGQFVYVIRKRIKLSAEKAIFIFVDNVLPPTGELMSSVYEDKKDEDGFLYITYSGENTFG
Consider B3, for which, in the test with DSK2A-MBP [2], the binding result was “binds”.

B4: GST-ATG8f (natural protein, Arabidopsis thaliana, UniProt Q8VYK7 1-117, looked up)
chain: MAKSSFKQEHDLEKRRAEAARIREKYPDRIPVIVEKAEKSDIPTIDKKKYLVPADLTVGQFVYVIRKRIKLSAEKAIFIFVDNVLPPAGALMSSVYEEKKDDDGFLYVTYSGENTFG
For the molecule B4, the binding result with DSK2A-MBP [2] was “binds”.

B5: SINAT2-MBP (enzyme, Arabidopsis thaliana, UniProt Q9M2P4 1-308, looked up)
chain: MAPGGSALKEVMESNSTGMDYEVKTAKVEVNNNKPTKPGSAGIGKYGIHSNNGVYELLECPVCTNLMYPPIHQCPNGHTLCSNCKLRVQNTCPTCRYELGNIRCLALEKVAESLEVPCRYQNLGCHDIFPYYSKLKHEQHCRFRPYTCPYAGSECSVTGDIPTLVVHLKDDHKVDMHDGCTFNHRYVKSNPHEVENATWMLTVFNCFGRQFCLHFEAFQLGMAPVYMAFLRFMGDENEAKKFSYSLEVGAHGRKLTWQGIPRSIRDSHRKVRDSQDGLIIPRNLALYFSGGDRQELKLRVTGRIWKEE
Take B5: the binding result with GST-DSK2A is “binds”.

B6: GST-ATG8a (natural protein, Arabidopsis thaliana, UniProt Q8LEM4 1-117, looked up)
chain: MAKSSFKISNPLEARMSESSRIREKYPDRIPVIVEKAGQSDVPDIDKKKYLVPADLTVGQFVYVVRKRIKLGAEKAIFVFVKNTLPPTAALMSAIYEEHKDEDGFLYMTYSGENTFG
In the case of B6, the binding result in the test with DSK2A-MBP [2] is “binds”.

B7: GST-ATG8i (natural protein, Arabidopsis thaliana, UniProt Q9LRP7 1-115, looked up)
chain: MKSFKEQYTLDERLAESREIIAKYPTRIPVIAEKYCKTDLPAIEKKKFLVPRDMSVGQFIYILSARLHLSPGKALFVFVNNTLPQTAALMDSVYESYKDDDGFVYMCYSSEKTFG
Consider B7, for which the binding result in the test with DSK2A-MBP [2] is recorded as “binds”.
